Source: publication PMC8346855

Molecular target: angiotensin II-bound mouse angiotensin II type 1 receptor F117W Δ324 (mouse | human)
Experiment: cross-linking + other: high-mass MALDI-MS; angiotensin II-bound AT1R (angII-AT1R), 5 µM, mixed with partner protein at various concentrations, 1 h at room temperature, BS(PEG)9 cross-linking, 1.0 µM β-Gal as internal standard; 20 mM Hepes pH 7.5, 40 mM NaCl, 0.01% LMNG; Ka = 1/Kd

- Ka: 480000 M⁻¹
B1: mini-Gq (domain or fragment)
chain: GIEKQLQKDKQVYRATHRLLLLGADNSGKSTIVKQMRILHGGSGGSGGTSGIFETKFQVDKVNFHMFDVGGQRDERRKWIQCFNDVTAIIFVVDSSDYNRLQEALNDFKSIWNNRWLRTISVILFLNKQDLLAEKVLAGKSKIEDYFPEFARYTTPEDATPEPGEDPRVTRAKYFIRDEFLRISTASGDGRHYCYPHFTCAVDTENARRIFNDCKDIILQMNLREYNLV
